Assays:
[1] = test system: hT40, dGA, dGAE and truncated tau fragments; assay: Binding ELISA / epitope mapping of anti-tau scAbs with truncated tau proteins and 13mer peptides; set-up: species or system human; conditions: for Binding regions on hT40: Table 33, core binding scAbs tested in epitope occlusion assays; for Tau proteins/fragments with positive scAb reactivity: binding ELISA; for Shortest region bound on hT40: incl. 13mer peptides; for Epitope: residue numbers of SEQ ID NO: 1 (hT40), CDR Tables 1-11
Description: A series of binding ELISA was performed using various truncated versions of the tau protein and 13mer peptide libraries spanning the entire hT40 molecule for mapping the epitopes of anti-tau scAbs (Full list of protein antigens used is given in Table 14). In general, ELISA plates were coated with 1 μg/ml hT40 or dGA or dGAE or other truncated versions of the protein and in the case of biotinylated peptides, plates were coated with 5 μg/ml Streptavidin followed by 1 μg/ml biotinylated peptide. The plates were blocked with 2% MPBS and scAb samples added at desired starting concentrations and double diluted across the plate. Binding was detected using anti-Human C Kappa HRP conjugated secondary antibody and the resulting immunoreaction was developed and absorbance values measured as described above.
Selected E specific scAbs and their specific binding to dGAE is shown below (FIG. 8A-E).
Similarly, dGA binding ‘NS’, ‘S’ and ‘M’ group scAbs were subjected to further antigen binding ELISA using shorter tau proteins and biotinylated 13mer peptides as shown below (FIG. 10A-F) and (FIG. 11A-R).

[2] = target: T1, hT40 (T441, SEQ ID NO: 1) (Homo sapiens, UniProt P10636); assay: Biacore X100 SPR kinetics of scAbs for hT40; format: binding; conditions: Table 25; '3a' and '3b' scAbs, hT40
T1 construct: Full length tau (hT40)
Description: Surface plasmon resonance (SPR) is widely regarded as the gold standard for real time measurement of protein-protein interactions such as antibody binding. All SPR experiments were carried out using a Biacore X100 machine and HBS EP+ running buffer (GE Healthcare). A ‘capture’ method was followed for affinity measurements, where an anti-human constant kappa chain (HuCk) antibody was conjugated to the surface of a CM5 sensor chip using an amine coupling kit and scAb molecules were immobilised via their HuCk domain. Amine coupling is a very common approach for immobilising the ligand to the chip surface. […] The capture antibody was diluted 1/100 in 10 mM Sodium acetate buffer pH 5.0 and passed over the activated chip surface for a period of at least 420 s. Final ligand immobilisation levels over 12,000 RU were deemed to be satisfactory.
Following immobilisation, the level of each scAb to be captured was identified using the standard SPR equation with a theoretical RMax of 100 RU. Analyte MW refers to the molecular weight of hT40 or dGA/dGAE molecules, while ligand MW refers to the molecular weight of the scAbs tested. RL is the desired capture level and S refers to the stoichiometric ratio:
The scAb to be tested was added only to flow cell 2 so that flow cell 1 could act as a control to subtract any interaction with the analyte and the chip surface. Both single and multi-cycle runs were utilised using wizards developed in the Biacore X100 control software which are both accepted methods of kinetic analysis (Karlsson, R., et al. Analyzing a kinetic titration series using affinity biosensors (2006) Analytical Biochemistry 349:136-47). The multi-cycle protocol was as follows-Three start-up cycles composed of an initial capture, to the desired level, of the scAb to be tested was performed followed by a 30 s injection of glycine buffer pH 2.0 after each cycle to regenerate the chip surface. […] Following three start-up cycles increasing concentrations (0.15625 nM-100 nM) of the target to be tested were added to the chip surface after the desired scAb capture. The target was added for a 120 s association period and 420 s dissociation period followed by another regeneration, 30 s injection of glycine buffer pH 2.0 in between each cycle.
The single cycle kinetics protocol was similar and utilised the same level of scAb capture. Three start-up cycles were used followed by 5 increasing concentrations of the analyte (6.25 nM-100 nM) for an association period of 120 s followed by a dissociation period of 420 s for each concentration. In single cycle kinetics the regeneration step was performed only after the final analyte concentration was added. Binding responses were analysed in Biacore X100 evaluation software and data fitted to a 1:1 binding model to obtain kinetic and affinity characterisation.

T1 sequence (P10636 1-441 isoform P10636-8): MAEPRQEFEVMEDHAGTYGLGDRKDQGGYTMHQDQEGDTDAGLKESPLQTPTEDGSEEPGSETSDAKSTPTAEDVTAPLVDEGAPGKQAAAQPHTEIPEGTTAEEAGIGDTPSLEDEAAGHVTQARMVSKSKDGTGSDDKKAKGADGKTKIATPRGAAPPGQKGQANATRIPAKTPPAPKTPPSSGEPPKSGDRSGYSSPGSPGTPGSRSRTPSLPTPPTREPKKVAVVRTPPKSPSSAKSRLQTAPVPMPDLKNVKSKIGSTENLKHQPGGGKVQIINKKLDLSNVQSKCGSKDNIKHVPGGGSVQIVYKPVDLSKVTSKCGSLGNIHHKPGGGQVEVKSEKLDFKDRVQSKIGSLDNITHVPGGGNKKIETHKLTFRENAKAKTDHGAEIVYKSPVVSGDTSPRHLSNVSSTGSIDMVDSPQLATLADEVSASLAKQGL

B1: S-1D12 (protein)
CDR 1: NNAVG
CDR 2: GCSSDGTCYYNSALKS
CDR 3: GHYSIYGYDYLGTIDY
CDR 4: SGSSSNVGGGNSVG
CDR 5: DTNSRPS
CDR 6: VTGDSTTHDDL
modifications: VHCDR1 S1D12, S2C1; VHCDR2 S1D12, S2C1; VHCDR3 S1D12; VLCDR1 S1D12, ME12; VLCDR2 S1D12; VLCDR3 S1D12
In the case of B1, the “Binding regions on hT40” value [1] is reported as 337-355.

B2: CA12: anti-tau clone, Tables 2 and 10; SEQ ID NO: 372 (protein)
chain: QVQLQGSGPSLVKPSQTLSLTCTVSGFSFDSYYVGWVRQAPGKALEWLGNIYSTGRAFYNPALKSRLSITRDTSKSQVSLSVSSVTIEDTALYYCVRGSYYHGGGNGMVDFFDYWSPGLLVTVSSEGKSSGASGESKVDDQVVRTQPSSVSGSLGQRVSITCSGSSSNVGYGNYVGWFQQVPGSAPKLLIYAATSRASGVPDRFSGSRSGNTATLTIDSLQAEDEADYYCSSYQRGNTGVFGSGTRLTVLG
modifications: CA12 amino acid sequence
For B2, the “Tau proteins/fragments with positive scAb reactivity” value (from here on “Tau proteins/fragments”) ([1]; Table 17, 'C' group scAbs) was “hT40, 297-390 (dGA)” and the “Shortest region bound on hT40” value ([1]; Table 17, 'C' group scAbs) was 367-379.

B3: CA7: anti-tau clone, Table 10; VH SEQ ID NO: 503, VL 504 (antibody, V domains shown)
VH: RVRLQGSGPSLVKPSQTLSLTCTVSGFSFDSYYVGWVRQAPGKALEWLGNIYSTGRAFYNPALKSRLSITRDTSKSQVSLSVSSVTIEDTALYYCVRGSYYHGGGNGMVDFFDYWSPGLLVTVSS
VL: QVVRTQPSSVSGSLGQRVSITCSGSSSNVGYGNYVGWFQQVPGSAPKLLIYAATSRASGVPDRFSGSRSGNTATLTIDSLQAEDEADYYCSSYQRGNTGVFGSGTRLTVLG
modifications: CA7 VH Domain; CA7 VL Domain
With B3 the “Tau proteins/fragments” value ([1]; Table 17, 'C' group scAbs) was “hT40, 1-319”, the “Shortest region bound on hT40” value ([1]; Table 17, 'C' group scAbs) was 1-319 and the Epitope [1] was 1-319.

B4: E2A6: dGAE (391E) specific clone, Table 9; SEQ ID NO: 252 (protein)
scFv: QVQLQESGPSLVKPSQTLSLTCTVSGFSLTDWGVAWVRQAPGKALEWLGTMRSGGTTDDNPALKSRLSITRDTSKSQVSLSLSSVTTEDMAMYYCARGYLSGVHYAWGRGLLVTVSSEGKSSGASGESKVDDRVVRTQPSSVSKSLGQSVSITCSGSSSNVGAGNYVGWFQQVPGSAPKLLIYGATNRASGVPARFSGSKSGVTATLTITSLQAEDEADYYCASIDTSRSHIFGSGTRLTVLG
modifications: E2A6 amino acid sequence
B4 was tested, and the “Tau proteins/fragments” value ([1]; Table 15, residue numbers of hT40) was 297-391 (dGAE).

B5: 3aD3: N-terminal anti-tau clone, Table 6; SEQ ID NO: 422 (protein)
chain: QVQLQESGPSLVKPSQTLSLTCTVSGFSLTSNGVGWVRRAPGKVPEWVGDISSGGKVYGHPALKSRLSITRDTSKSQVSLSVSSVTSEDTAVYYCVRCRDGGVSYGYDSDYWGPGLLVTVSSEGKSSGASGESKVDDQAVVTQPSSVSKSLGQSVSITCSGSSSNVGYGDYVGWFQQVPGSAPKLLIYGVTERASGVPDRFSGSRSGNTATLTISSIQAEDEADYYCASYDDSSGGIFGSGTRLTVLG
modifications: 3aD3 amino acid sequence
For B5, the “Short epitope on hT40” value ([1]; Table 18, '3a' & '3b' series scAbs) was 1-49, the Epitope [1] was 1-49 and the “ka” value [2] was 544400 M⁻¹ s⁻¹. For the same molecule, the “kd” value [2] was 0.01038 s⁻¹.

B6: S1G10: anti-tau clone, Table 2; SEQ ID NO: 415 (protein)
scFv: QVQLQESGPSLVKPSQTLSLTCTVSGFSLTSNSVGWVRQAPGKAPEWVAGIDTDGEEGYNPALNSRLSITRDTSKSQVSLSLSSVTSEDTAVYYCGRSYRADGLAYGYVQAIDYWGPGLLVTVSSEGKSSGASGESKVDDQAVLTQPSSMSGSLGQRVSITCSGSFIGISSVGWFQQLPGSGLRTIIVASDGRPSGVPDRFSMSKSGNTATLTISSLQAEDEADYFCGSSDRTQYTGVFGSGTRLTVLG
modifications: S1G10 amino acid sequence
B6 was tested, and the “Tau proteins/fragments” value ([1]; Table 16, NS, S and M clones) was “hT40, 297-390 (dGA), 297-391 (dGAE), 369-390, 369-391”, the “Shortest region bound on hT40” value ([1]; Table 16, NS, S and M clones) was 367-379 and the “Detection scAb (Epitope)” value ([1]; Table 28 (LoD table), residues of hT40) was “S1G10 (367-379)”.

B7: C-A9 (protein)
scFv: QVQLQESGPSLVKPSQTLSLTCTVSGFSLTSNSVGWVRQAPGKAPEWVAGIDTDGEEGYNPALNSRLSITRDTSKSQVSLSLSSVTSEDTAVYYCGRSYRSDGLAYGYVQAIDYWGPGLLVTVSSEGKSSGASGESKVDDQAVLTQPASVSGSLGQRVSITCSGSFIGISSVGWFQQLPGSGLRTIIVASDGRPSGVPDRFSMSKSGNTATLTISSLQAEDEADYFCGSSDRTQYTGVFGSGTRLTVLG
modifications: left off: small tags and cut ends
With B7 the “Binding regions on hT40” value [1] was 367-379.

B8: CB2: anti-tau clone, Tables 2 and 10; SEQ ID NO: 369 (protein)
scFv: QVQLQESGPSLVKPSQTLSLTCTVSGFSLSTNSVGWVRQAPGKAPEWVAGIDTDGEEGFNPVLKSRLSITRDTSKSQVSLSLSNVTSEDTAVYYCGRSYRTDGLAYGYVQAIDYWGPGLLVTISSEGKSSGASGESKVDDQSVLTQPSSVSGSPGQTVSITCSGSYIGSSGVGWFQQLPGSGLRTIIVASDGRPSGVPDRFSMSKSGNTATLTISSLQAEDEADYFCGSSDRTQYTGLFGSGTRLTVLG
modifications: CB2 amino acid sequence
In the case of B8, the “Tau proteins/fragments” value ([1]; Table 17, 'C' group scAbs) is reported as “hT40, 348-441” and the “Shortest region bound on hT40” value ([1]; Table 17, 'C' group scAbs) is reported as 359-391.

B9: C-E3 (protein)
CDR 1: SNAVG
CDR 2: GCSSDGKCYYNSALKS
CDR 3: GYYPVYGYDYLGTIDY
CDR 4: SGSSSNVGRNDVA
CDR 5: GTTSRPS
CDR 6: ASGDSSAINDI
modifications: VHCDR1 ME12, NS3D9; VHCDR1 S1D2, S1H6, S2C3; VHCDR1 MC5, MD12; VHCDR1 3aA6, VHCDR1 CE3; VHCDR2 NS3D9, CE3; VHCDR3 NS3D9, CE3; VLCDR1 NS3D9, CE3; VLCDR2 NS3D9, CE3; VLCDR3 NS3D9, CE3
In the case of B9, the “Binding regions on hT40” value [1] is reported as 297-356.

B10: C-B3 (protein)
scFv: QVQLQESGPSLVKPSQTLSLTCTVSGFSLSSVAVNWVRQAPGKVPEWLGGIISNGGTGYNPALKSRLSITRDTSKSQVSLALTHVTTEDTAVYYCGRGVEWEGSMDYLGPGLLVTVSSEGKSSGSGSETKVDDQSVLTQPSSVSGFLGQRVTITCSGSSSNVGAGSYVGWYQQVPGSGLRILIYGATKRASGLPDRFSGSRSGNTATLTISSLQAEDEADYYCVSYQTDFTLVFGSGTRLTVLG
modifications: left off: small tags and cut ends
With B10 the “Binding regions on hT40” value [1] was 360-390.

B11: NS1G7: anti-tau clone, Table 10; SEQ ID NO: 374 (protein)
scFv: QVQLQESGPSLVKPSQTLSLTCTVSGFSLTSYGVGWVRQAPGKTLEWISSISSGGTTFYNPALKSRLSITRDTSESQVSLSLSSVTTEDTAVYYCTRDVHIYYNDYGAAYGDRDYWGPGLLVTVSSEGKSSGASGESKVDDQAVVTQPPSVSGSPGQRVSITCSGSSSNIGGGNYVSWYQQLPGSGLRTLIYGTTSRASGVPDRFSGSGSGNTATLTISSLQAEDEADYYCASYDTNSGSVFGSGTRLTVLG
modifications: NS1G7 amino acid sequence
In the case of B11, the “Tau proteins/fragments” value ([1]; Table 16, NS, S and M clones) is reported as “hT40, 297-390 (dGA), 297-391 (dGAE), 275-305, 337-368”.

Reference: patent US20250355001A1, “METHOD FOR DETECTING A TAU PROTEIN FRAGMENT IN A SAMPLE” (GTINVENT LIMITED, priority 2022, published 2025)
